Source: US7553667B2, “Regulation of gene expression using chromatin remodelling factors” (Her Majesty the Queen in right of Canada as represented by …, priority 2002, dated 2009)

T1: GST-HDA19 (Arabidopsis thaliana, UniProt O22446)
T1 construct: made in house; host or cells: E. coli BL21-CodonPlus (DE3)-RP
T1 sequence (O22446 1-501): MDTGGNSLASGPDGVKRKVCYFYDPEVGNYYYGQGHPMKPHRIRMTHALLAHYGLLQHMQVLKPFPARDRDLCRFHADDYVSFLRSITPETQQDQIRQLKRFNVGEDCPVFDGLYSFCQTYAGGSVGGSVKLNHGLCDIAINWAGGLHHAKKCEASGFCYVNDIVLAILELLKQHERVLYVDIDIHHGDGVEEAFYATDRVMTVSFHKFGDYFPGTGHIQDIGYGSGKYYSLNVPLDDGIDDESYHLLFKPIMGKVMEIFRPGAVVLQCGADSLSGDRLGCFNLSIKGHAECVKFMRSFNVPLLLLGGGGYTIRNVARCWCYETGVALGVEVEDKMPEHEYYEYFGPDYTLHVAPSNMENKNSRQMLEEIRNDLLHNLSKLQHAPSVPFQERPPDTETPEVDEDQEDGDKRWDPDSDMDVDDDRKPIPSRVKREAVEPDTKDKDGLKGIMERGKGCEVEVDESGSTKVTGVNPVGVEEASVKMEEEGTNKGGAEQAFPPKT

T2: GST-Gcn5 (Arabidopsis thaliana, UniProt Q9AR19)
T2 construct: made in house; host or cells: E. coli BL21-CodonPlus (DE3)-RP
T2 sequence (Q9AR19 1-568): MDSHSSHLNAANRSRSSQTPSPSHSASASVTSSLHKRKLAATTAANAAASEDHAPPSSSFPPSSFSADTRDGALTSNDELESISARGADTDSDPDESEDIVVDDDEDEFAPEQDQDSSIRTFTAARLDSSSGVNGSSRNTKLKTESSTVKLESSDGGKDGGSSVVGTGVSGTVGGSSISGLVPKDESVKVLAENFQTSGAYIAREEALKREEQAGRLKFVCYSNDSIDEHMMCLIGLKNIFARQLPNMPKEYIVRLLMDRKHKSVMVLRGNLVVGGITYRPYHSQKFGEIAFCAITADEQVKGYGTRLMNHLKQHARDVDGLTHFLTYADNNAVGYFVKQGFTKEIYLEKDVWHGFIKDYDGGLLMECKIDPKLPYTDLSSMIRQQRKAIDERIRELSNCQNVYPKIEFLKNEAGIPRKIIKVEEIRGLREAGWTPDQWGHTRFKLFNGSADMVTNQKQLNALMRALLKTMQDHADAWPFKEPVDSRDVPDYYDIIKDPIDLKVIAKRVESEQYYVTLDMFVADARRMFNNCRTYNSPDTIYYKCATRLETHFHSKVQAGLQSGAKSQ

T3: Gcn5 (Arabidopsis thaliana, UniProt Q9AR19)
T3 construct: expressed in transfected cells; host or cells: Saccharomyces cerevisiae MaV203
T3 sequence (Q9AR19 1-568): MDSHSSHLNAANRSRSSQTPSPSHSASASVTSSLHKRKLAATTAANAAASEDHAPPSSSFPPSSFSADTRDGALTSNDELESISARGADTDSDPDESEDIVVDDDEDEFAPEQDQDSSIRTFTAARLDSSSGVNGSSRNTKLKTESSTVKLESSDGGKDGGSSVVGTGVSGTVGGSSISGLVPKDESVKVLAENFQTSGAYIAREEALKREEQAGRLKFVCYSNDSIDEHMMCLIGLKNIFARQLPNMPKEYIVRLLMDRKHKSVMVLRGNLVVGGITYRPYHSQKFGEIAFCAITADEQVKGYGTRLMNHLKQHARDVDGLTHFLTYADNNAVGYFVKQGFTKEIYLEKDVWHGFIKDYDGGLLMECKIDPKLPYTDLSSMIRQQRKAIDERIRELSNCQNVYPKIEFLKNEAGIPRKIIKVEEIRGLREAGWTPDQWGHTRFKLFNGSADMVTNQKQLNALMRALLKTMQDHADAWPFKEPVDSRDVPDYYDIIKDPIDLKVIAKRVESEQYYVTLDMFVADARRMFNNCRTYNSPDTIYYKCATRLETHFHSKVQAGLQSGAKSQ


Columns and labels:
[1] = molecular target: T1, GST-HDA19; experiment: GST pulldown affinity assay of bnKCP1 and mutants with GST-HDA19; assay type: binding; conditions: [35S]Met-labeled in vitro translated protein
Excerpt: (§1) The full coding regions of the Arabidopsis HAT, Gcn5 (Dr. M. Thomashow, Michigan State University, MI), and HDA19 (Accession # AF195547) were PCR amplified, sequence analyzed and inserted in-frame with the GST (glutathione s-transferase) into the SalI and NotI sites of vector pGEX-6P-2 (Amersham Pharmacia). The forward used for the amplification of Gcn5 was:
(§2) Recombinant pGEX-6P-2 plasmids were used to transform E. coli BL21-CodonPlus (DE3)-RP competent cells (Stratagene). Expression and purification under non-denaturing conditions were carried out as described by Gao et al. (Gao, M.-J. et al., 2002). The GST-Gcn5 and GST-HDA19 fusion proteins were analyzed by 7.5% SDS-PAGE (SDS-polyacrylamide gel electrophoresis) and western blotting with rabbit anti-GST-Pi polyclonal antibody (Chemicon) using ECL Western blotting analysis system (Amersham Pharmacia).
(§3) Full-length bnKCP1 and truncated mutant bnKCP1^1-160 and bnKCP1^1-80 proteins labeled with [^35S]methionine were produced using TNT-Quick Coupled Transcription/Translation System (Promega) according to the manufacture's instructions, with some modifications. A total of 1 μl of RNase inhibitor (GibcoL BRL) and 1 μl of protease inhibitors set (Roche) were added to the lysate reaction. After incubation for 90 min at 30° C., RNase A was added to the reaction to a final concentration of 0.2 mg/ml and incubated for 5 min at the same temperature.
In vitro protein interaction was detected with GST pulldown affinity assays as described by Ahmad et al. (1999) with some modifications. Briefly, 6 μg of GST or 4 μg of GST-fusion protein was incubated with 5 μl of [^35S]Met-labeled translation mixture in 200 μl of bead-binding buffer (50 mM K-phosphate, pH 7.6, 450 mM KCl, 10 mM MgCl2, 10% glycerol, 1% Triton X-100, 1% BSA and 1 μl of diluted 1:12 protease inhibitors set) for 1 h at room temperature. After incubation, 20 μl of 50% slurry of glutathione-Sepharose beads containing 10 mg/ml of BSA and 4 μg of EtBr was mixed with the reaction mixture followed by gentle rotation for 1 h at 4° C. After washing six times with 1.2 ml of bead-binding buffer without BSA and EtBr but containing 12 μl of protease inhibitors set (Roche), the bound proteins were eluted with 30 μl of 2×SDS loading buffer, boiled for 2 min and analyzed by 12% SDS-PAGE. After electrophoresis, the gels were dried, treated with Amplify (Amersham Pharmacia) and subjected to fluorography.

[2] = molecular target: T2, GST-Gcn5; experiment: GST pulldown affinity assay of bnKCP1 and mutants with GST-Gcn5; assay type: binding; conditions: [35S]Met-labeled in vitro translated protein
Excerpt: as §1, §2, §3
In vitro protein interaction was detected with GST pulldown affinity assays as described by Ahmad et al. (1999) with some modifications. […] After washing six times with 1.2 ml of bead-binding buffer without BSA and EtBr but containing 12 μl of protease inhibitors set (Roche), the bound proteins were eluted with 30 μl of 2×SDS loading buffer, boiled for 2 min and analyzed by 12% SDS-PAGE. […]

[3] = molecular target: T3, Gcn5; experiment: Yeast two-hybrid interaction of bnKCP1 with Gcn5 (HIS3, URA3, lacZ reporters); assay type: cell-based; conditions: MaV203 yeast, Gcn5 fused to Gal4 DB, data not shown
Excerpt: To reassess the interaction of bnKCP1 with Gcn5 in vivo, the ORF of the Arabidopsis Gcn5 was fused to the yeast Gal4 DNA binding domain in pDBLeu vector and then used to transform yeast MaV203 cells expressing bnKCP1 fused to the yeast Gal4 activation domain in pPC86 vector.

[4] = system: lacZ reporter gene driven by promoter containing GAL4 DNA binding sites; experiment: Transactivation assay of bnKCP1 using yeast one-hybrid system; assay type: cell-based, yeast MaV203
Excerpt: Effector plasmids pDBLeu-bnKCP1^1-160, pDBLeu-bnKCP1^1-80, pDBLeu-bnKCP1^81-215 and pDBLeu-bnKCP1 were constructed by ligating the PCR-amplified fragments ΔbnKCP1^1-160, ΔbnKCP1^1-80, ΔbnKCP1^81-215 and the coding region of bnKCP1 into the SalI/NotI sites of pDBLeu vector (GibcoL BRL) in-frame with the GAL4 DB sequence. The oligonucleotide primers for PCR amplification were as follows: […]
The three reporter genes, lacZ, HIS3 and URA3, which were chromosomally integrated in the genome of MaV203 yeast cells were driven by unrelated promoters containing GAL4 DNA binding sites (GibcoL BRL). For transient assays, the effector constructs or the negative control vector pDBLeu were transferred to the MaV203 yeast cells. The β-galactosidase activity was measured using CPRG (chlorophenol red-β-D-galactopyranoside) according to the manufacturer's instructions (GibcoL BRL). The MaV203 cells containing plasmids pDBLeu-HDA19 and pPC86-bnKCP1 were used as the positive control. In addition, we used three yeast control strains A, B, and C (GibcoL BRL), which were developed to contain plasmid pairs expressing fusion proteins with none, weak and moderately strong protein-protein interaction strength, respectively. Transient Expression of the GUS-bnCKP1 Fusion Protein

[5] = molecular target: T1, GST-HDA19; experiment: GST pulldown affinity assay of BnSCL1 and mutants with GST-HDA19; assay type: binding; conditions: [35S]Met-labeled in vitro translated protein
Protocol: The open reading frame (ORF) of the HDA19 was PCR amplified, sequence analyzed, inserted in-frame with the GST (glutathione s-transferase) into the vector pGEX-6P-2 (Amersham Pharmacia), and transformed into E. coli BL21-CodonPlus (DE3)-RP competent cells (Stratagene) as previously described (Gao et al., 2003). The recombinant HDA19 protein was expressed and purified under non-denaturing conditions as described by Gao et al, 2002). The GST-HDA19 fusion protein was analyzed by western blotting with rabbit anti-GST-Pi polyclonal antibody (Chemicon) using ECL Western blotting analysis system (Amersham Pharmacia).
The entire coding region of BnSCL1 and four fragments, BnSCL1^1-358, BnSCL1^1-261, BnSCL1^1-217, and BnSCL1^1-145 […], respectively, were amplified by PCR and cloned into the HindIII and XhoI sites of the expression vector pET-28b (Novagen) in-frame with the His-Tag sequence. […]
The TnT-Quick Coupled Transcription/Translation System (Promega) was used to produce the full-length BnSCL1 protein and the truncated mutants ΔBnSCL1^1-358, ΔBnSCL1^1-261, ΔBnSCL1^1-217 and ΔBnSCL1^1-145 labeled with [^35S]methionine as previously described (Gao et al., 2003). In vitro protein interaction was detected with GST pulldown affinity assays as described by Ahmad et al. (1999) and Gao et al., (2003).

[6] = system: lacZ reporter gene driven by a promoter containing GAL4 DNA binding sites; experiment: Transactivation assay of BnSCL1 in yeast; assay type: cell-based, yeast MaV203
Excerpt: MaV203 yeast cells expressing the lacZ reporter gene driven by a promoter containing GAL4 DNA binding sites (GibcoL BRL) were transformed with the […]. These vectors were constructed by ligating the PCR-amplified fragments, ΔBnSCL1^1-358, ΔBnSCL1^1-261, ΔBnSCL1^1-217, ΔBnSCL1^1-145, ΔBnSCL1^146-358 and ΔBnSCL1^218-434 and the entire coding region of BnSCL1, respectively, into the SalI and NotI sites of the vector pDBLeu (GibcoL BRL) in-frame with the GAL4 DB sequence. The oligonucleotide primers for the amplification were the same as those used for the in vivo protein interaction assays. The β-galactosidase activity was measured using CPRG according to the manufacturer's instructions (GibcoL BRL). In addition to the yeast strains A, B and C, the yeast strains D (GibcoL BRL) that contain plasmid pairs expressing fusion protein with strong interaction strength was used as controls.

Row | Molecule | in vitro binding to GST-HDA19 [1] | in vitro binding to GST-Gcn5 [2] | induction of reporter genes HIS3, URA3 and lacZ with Gcn5, compared with HDA19 [3] | activation of reporter genes HIS3 and URA3 ([4]; data not shown) | stimulation of β-galactosidase activity ([4]; relative to GAL4 DB alone or yeast control strain A) | in vitro binding to GST-HDA19 [5] | transactivation of reporter genes HIS3 and URA3 ([6]; data not shown) | increase of β-galactosidase activity ([6]; relative to vector pDBLeu alone or yeast control strain A)
1 | bnKCP1: B. napus KID-containing protein 1, 215 amino acid protein interacting with HDA19 (SEQ ID NO:71) (protein, left off: large carriers) MAGGGPTFSIELSAYGSDLPTDKASGDIPNEEGSGLSRVGSGIWSGRTVDYSSESSSSIGTPGDSEEEDEESEEDNDEEELGLASLRSLEDSLPSKGLSSHYKGKSKSFGNLGEIGSVKEVPKQENPLNKKRRLQIYNKLARKSFYSWQNPKSMPLLPVHEDNDDEEGDDGDLSDEERGGDVLARRPSFKNRALKSMSCFALSDLQEEEEEEEDE | bound | bound | relatively lower level | modestly activated | about 8 fold |  |  | 
2 | BnSCL1: Brassica napus SCARECROW-like protein 1, SEQ ID NO:81 (protein, left off: large carriers) MKLQASSPQDNQPSNTTNNSTDSNHLSMDEHAMRSMDWDSIMKELEVDDDSAPYQLQPSSFNLPVFPDIDSSDVYPGPNQITGYGFNSLDSVDNGGFDYIEDLIRVVDCIESDELHLAHVVLSQLNQRLQTSAGRPLQRAAFYFKEALGSLLTGTNRNQLFSWSDIVQKIRAIKEFSGISPIPLFSHFTANQAILDSLSSQSSSPFVHVVDFEIGFGGQYASLMREIAEKSANGGFLRVTAVVAEDCAVETRLVKENLTQFAAEMKIRFQIEFVLMKTFEILSFKAIRFVDGERTVVLISPAIFRRVIGIAEFVNNLGRVSPNVVVFVDSEGCTETAGSGSFRREFVSAFEFYTMVLESLDAAAPPGDLVKKIVETFLLRPKISAAVETAANRRSAGQMTWREMLCAAGMRPVQLSQFADFQAECLLEKAQVRGFHVAKRQGELVLCWHGRALVATSAWRF |  |  |  |  |  | bound | strongly transactivated | approximately 20 fold
